Reference: article PMC10584365 (Nature, 2023)
“And” between values parts separate entries of the source, which are not always exact repeats. Equal entries are not always repeated.

Biological target: the molecule itself
Experiment: high-speed atomic force microscopy

| Protein | stoichiometry N |
| --- | --- |
| full-length human TRPV3 channel (expressed in P. pastoris) (natural protein, UniProt Q8NET8 1-790, looked up) MKAHPKEMVPLMGKRVAAPSGNPAILPEKRPAEITPTKKSAHFFLEIEGFEPNPTVAKTSPPVFSKPMDSNIRQCISGNCDDMDSPQSPQDDVTETPSNPNSPSAQLAKEEQRRKKRRLKKRIFAAVSEGCVEELVELLVELQELCRRRHDEDVPDFLMHKLTASDTGKTCLMKALLNINPNTKEIVRILLAFAEENDILGRFINAEYTEEAYEGQTALNIAIERRQGDIAALLIAAGADVNAHAKGAFFNPKYQHEGFYFGETPLALAACTNQPEIVQLLMEHEQTDITSRDSRGNNILHALVTVAEDFKTQNDFVKRMYDMILLRSGNWELETTRNNDGLTPLQLAAKMGKAEILKYILSREIKEKRLRSLSRKFTDWAYGPVSSSLYDLTNVDTTTDNSVLEITVYNTNIDNRHEMLTLEPLHTLLHMKWKKFAKHMFFLSFCFYFFYNITLTLVSYYRPREEEAIPHPLALTHKMGWLQLLGRMFVLIWAMCISVKEGIAIFLLRPSDLQSILSDAWFHFVFFIQAVLVILSVFLYLFAYKEYLACLVLAMALGWANMLYYTRGFQSMGMYSVMIQKVILHDVLKFLFVYIVFLLGFGVALASLIEKCPKDNKDCSSYGSFSDAVLELFKLTIGLGDLNIQQNSKYPILFLFLLITYVILTFVLLLNMLIALMGETVENVSKESERIWRLQRARTILEFEKMLPEWLRSRFRMGELCKVAEDDFRLCLRINEVKWTEWKTHVSFLNEDPGPVRRTDFNKIQDSSRNNSKTTLNAFEEVEEFPETSV | 4 and 5 |
| full-length human TRPV3 (expressed in HEK293S GnTI- cells) (natural protein, UniProt Q8NET8 1-790, looked up) MKAHPKEMVPLMGKRVAAPSGNPAILPEKRPAEITPTKKSAHFFLEIEGFEPNPTVAKTSPPVFSKPMDSNIRQCISGNCDDMDSPQSPQDDVTETPSNPNSPSAQLAKEEQRRKKRRLKKRIFAAVSEGCVEELVELLVELQELCRRRHDEDVPDFLMHKLTASDTGKTCLMKALLNINPNTKEIVRILLAFAEENDILGRFINAEYTEEAYEGQTALNIAIERRQGDIAALLIAAGADVNAHAKGAFFNPKYQHEGFYFGETPLALAACTNQPEIVQLLMEHEQTDITSRDSRGNNILHALVTVAEDFKTQNDFVKRMYDMILLRSGNWELETTRNNDGLTPLQLAAKMGKAEILKYILSREIKEKRLRSLSRKFTDWAYGPVSSSLYDLTNVDTTTDNSVLEITVYNTNIDNRHEMLTLEPLHTLLHMKWKKFAKHMFFLSFCFYFFYNITLTLVSYYRPREEEAIPHPLALTHKMGWLQLLGRMFVLIWAMCISVKEGIAIFLLRPSDLQSILSDAWFHFVFFIQAVLVILSVFLYLFAYKEYLACLVLAMALGWANMLYYTRGFQSMGMYSVMIQKVILHDVLKFLFVYIVFLLGFGVALASLIEKCPKDNKDCSSYGSFSDAVLELFKLTIGLGDLNIQQNSKYPILFLFLLITYVILTFVLLLNMLIALMGETVENVSKESERIWRLQRARTILEFEKMLPEWLRSRFRMGELCKVAEDDFRLCLRINEVKWTEWKTHVSFLNEDPGPVRRTDFNKIQDSSRNNSKTTLNAFEEVEEFPETSV | 3 and 2 |
